Assay results: US20220017622A1 (Pfizer, published 2022)

T1: human B7-H4 on cells (human, UniProt Q7Z7D3 25-282)
T1 sequence (looked up): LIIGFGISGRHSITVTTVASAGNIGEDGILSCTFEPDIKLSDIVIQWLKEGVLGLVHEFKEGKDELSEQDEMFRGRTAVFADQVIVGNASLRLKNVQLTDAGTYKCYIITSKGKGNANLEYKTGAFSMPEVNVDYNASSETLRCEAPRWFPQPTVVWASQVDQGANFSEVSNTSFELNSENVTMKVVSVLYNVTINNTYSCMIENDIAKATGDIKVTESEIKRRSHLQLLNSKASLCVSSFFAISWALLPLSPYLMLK


How the values were obtained:
human B7-H4 on cells [1] = biological target: T1, human B7-H4 on cells; assay: cell-based or functional assay
human B7-H4 on cells [2] = biological target: T1, human B7-H4 on cells; assay: flow cytometry on MX-1 cells, 37 C
[3] = biological target: T2, human CD3 on primary human T cells (human, UniProt P07766 23-207; P04234 22-171); assay: flow cytometry on primary human T cells, 37 C
T2 construct: whole, on cells; On cells the whole CD3/TCR complex is present
T2 sequence (P07766 23-207, chain 1 of 2): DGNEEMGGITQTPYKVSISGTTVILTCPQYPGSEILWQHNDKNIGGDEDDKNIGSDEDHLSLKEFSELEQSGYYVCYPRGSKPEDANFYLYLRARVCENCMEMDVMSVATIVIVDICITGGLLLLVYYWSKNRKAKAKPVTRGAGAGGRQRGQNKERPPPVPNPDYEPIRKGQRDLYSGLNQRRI
T2 sequence (P04234 22-171, chain 2 of 2): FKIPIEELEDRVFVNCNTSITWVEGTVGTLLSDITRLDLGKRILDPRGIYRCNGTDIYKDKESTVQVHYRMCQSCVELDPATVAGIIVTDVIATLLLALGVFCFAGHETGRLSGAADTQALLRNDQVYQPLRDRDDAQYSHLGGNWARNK

Row | Binder | T cell mediated tumor cell killing EC50, HCC1954-Luc (human B7-H4 on cells [1]) | T cell mediated tumor cell killing, T47D (human B7-H4 on cells [1]) | EC50 (human B7-H4 on cells [2]) | EC50 [3] | T cell mediated tumor cell killing, OVCAR3-Luc (human B7-H4 on cells [1])
1 | B7-H4xCD3 bispecific antibody 1133 (bispecific antibody, IgG2, Chains 1-2: B7-H4 arm; chains 3-4: CD3 arm; IgG2) heavy 1: EVQLVESGGGLVQPGGSLRLSCAVSGGSFSGYYWNWIRQPPGKGLEWIGEINHSGSATYNPSLKSRVTISVDTAKNSLYLQMNSLRAEDTAVYYCARGLYNWNVDHWGQGTLVTVSSASTKGPSVFPLAPCSRSTSESTAALGCLVKDYFPEPVTVSWNSGALTSGVHTFPAVLQSSGLYSLSSVVTVPSSNFGTQTYTCNVDHKPSNTKVDKTVERKCEVECPECPAPPVAGPSVFLFPPKPKDTLMISRTPEVTCVVVAVSHEDPEVQFNWYVDGVEVHNAKTKPREEQFNSTFRVVSVLTVVHQDWLNGKEYKCKVSNKGLPSSIEKTISKTKGQPREPQVYTLPPSREEMTKNQVSLTCEVKGFYPSDIAVEWESNGQPENNYKTTPPMLDSDGSFFLYSKLTVDKSRWQQGNVFSCSVMHEALHNHYTQKSLSLSPG light 1: DIQMTQSPSSLSASVGDRVTITCRASQGIRNDLGWYQQKPGKAPKRLIYAASSLQSGVPSRFSGSGSGTDFTLTISSLQPEDFATYYCLQHNAYPRTFGGGTKVEIKRTVAAPSVFIFPPSDEQLKSGTASVVCLLNNFYPREAKVQWKVDNALQSGNSQESVTEQDSKDSTYSLSSTLTLSKADYEKHKVYACEVTHQGLSSPVTKSFNRGEC heavy 2: EVQLVESGGGLVQPGGSLRLSCAASGFTFSDYYMTWVRQAPGKGLEWVAFIRNQARGYTSDHNPSVKGRFTISRDNAKNSLYLQMNSLRAEDTAVYYCARDRPSYYVLDYWGQGTTVTVSSASTKGPSVFPLAPCSRSTSESTAALGCLVKDYFPEPVTVSWNSGALTSGVHTFPAVLQSSGLYSLSSVVTVPSSNFGTQTYTCNVDHKPSNTKVDKTVERKCRVRCPRCPAPPVAGPSVFLFPPKPKDTLMISRTPEVTCVVVAVSHEDPEVQFNWYVDGVEVHNAKTKPREEQFNSTFRVVSVLTVVHQDWLNGKEYKCKVSNKGLPSSIEKTISKTKGQPREPQVYTLPPSREEMTKNQVSLTCLVKGFYPSDIAVEWESNGQPENNYKTTPPMLDSDGSFFLYSRLTVDKSRWQQGNVFSCSVMHEALHNHYTQKSLSLSPGK light 2: DIQMTQSPSSLSASVGDRVTITCTSSQSLFNVRSQKNYLAWYQQKPGKAPKLLIYWASTRESGVPSRFSGSGSGTDFTLTISSLQPEDFATYYCKQSYDLFTFGGGTKVEIKRTVAAPSVFIFPPSDEQLKSGTASVVCLLNNFYPREAKVQWKVDNALQSGNSQESVTEQDSKDSTYSLSSTLTLSKADYEKHKVYACEVTHQGLSSPVTKSFNRGEC | 790 nM | 2810 | 1.47 nM | 5.73 nM | 
2 | B7-H4xCD3 bispecific antibody 1037 (bispecific antibody, IgG2, Chains 1-2: B7-H4 arm; chains 3-4: CD3 arm; IgG2) heavy 1: EVQLVESGGGLVQPGGSLRLSCAVSGGSFSGYYWNWVRQAPGKGLEWIGEINHSGSATYNPSLKSRVTISVDTAKNSLYLQMNSLRAEDTAVYYCARGLYNWNVDHWGQGTLVTVSSASTKGPSVFPLAPCSRSTSESTAALGCLVKDYFPEPVTVSWNSGALTSGVHTFPAVLQSSGLYSLSSVVTVPSSNFGTQTYTCNVDHKPSNTKVDKTVERKCEVECPECPAPPVAGPSVFLFPPKPKDTLMISRTPEVTCVVVAVSHEDPEVQFNWYVDGVEVHNAKTKPREEQFNSTFRVVSVLTVVHQDWLNGKEYKCKVSNKGLPSSIEKTISKTKGQPREPQVYTLPPSREEMTKNQVSLTCEVKGFYPSDIAVEWESNGQPENNYKTTPPMLDSDGSFFLYSKLTVDKSRWQQGNVFSCSVMHEALHNHYTQKSLSLSPG light 1: DIQMTQSPSSLSASVGDRVTITCRASQGIRNDLGWYQQKPGKAPKRLIYAASSLQSGVPSRFSGSGSGTDFTLTISSLQPEDFATYYCLQHSSYPRTFGGGTKVEIKRTVAAPSVFIFPPSDEQLKSGTASVVCLLNNFYPREAKVQWKVDNALQSGNSQESVTEQDSKDSTYSLSSTLTLSKADYEKHKVYACEVTHQGLSSPVTKSFNRGEC heavy 2: EVQLVESGGGLVQPGGSLRLSCAASGFTFSDYYMTWVRQAPGKGLEWVAFIRNQARGYTSDHNPSVKGRFTISRDNAKNSLYLQMNSLRAEDTAVYYCARDRPSYYVLDYWGQGTTVTVSSASTKGPSVFPLAPCSRSTSESTAALGCLVKDYFPEPVTVSWNSGALTSGVHTFPAVLQSSGLYSLSSVVTVPSSNFGTQTYTCNVDHKPSNTKVDKTVERKCRVRCPRCPAPPVAGPSVFLFPPKPKDTLMISRTPEVTCVVVAVSHEDPEVQFNWYVDGVEVHNAKTKPREEQFNSTFRVVSVLTVVHQDWLNGKEYKCKVSNKGLPSSIEKTISKTKGQPREPQVYTLPPSREEMTKNQVSLTCLVKGFYPSDIAVEWESNGQPENNYKTTPPMLDSDGSFFLYSRLTVDKSRWQQGNVFSCSVMHEALHNHYTQKSLSLSPGK light 2: DIQMTQSPSSLSASVGDRVTITCTSSQSLFNVRSQKNYLAWYQQKPGKAPKLLIYWASTRESGVPSRFSGSGSGTDFTLTISSLQPEDFATYYCKQSYDLFTFGGGTKVEIKRTVAAPSVFIFPPSDEQLKSGTASVVCLLNNFYPREAKVQWKVDNALQSGNSQESVTEQDSKDSTYSLSSTLTLSKADYEKHKVYACEVTHQGLSSPVTKSFNRGEC | 620 nM | 1270 | 3.64 nM | 5.78 nM | 
3 | B7-H4xCD3 bispecific antibody 1134 (bispecific antibody, IgG2, Chains 1-2: B7-H4 arm; chains 3-4: CD3 arm; IgG2) heavy 1: EVQLVESGGGLVQPGGSLRLSCAVSGGSFSGYYWNWIRQPPGKGLEWIGEIDHQGSTKYNPSLKSRVTISVDTAKNSFYLQMNSLRAEDTAVYYCARGLYNWNVDHWGQGTLVTVSSASTKGPSVFPLAPCSRSTSESTAALGCLVKDYFPEPVTVSWNSGALTSGVHTFPAVLQSSGLYSLSSVVTVPSSNFGTQTYTCNVDHKPSNTKVDKTVERKCEVECPECPAPPVAGPSVFLFPPKPKDTLMISRTPEVTCVVVAVSHEDPEVQFNWYVDGVEVHNAKTKPREEQFNSTFRVVSVLTVVHQDWLNGKEYKCKVSNKGLPSSIEKTISKTKGQPREPQVYTLPPSREEMTKNQVSLTCEVKGFYPSDIAVEWESNGQPENNYKTTPPMLDSDGSFFLYSKLTVDKSRWQQGNVFSCSVMHEALHNHYTQKSLSLSPG light 1: DIQMTQSPSSLSASVGDRVTITCRASQGIRNDLGWYQQKPGKAPKRLIYAASSLQSGVPSRFSGSGSGTDFTLTISSLQPEDFATYYCLQHNAYPRTFGGGTKVEIKRTVAAPSVFIFPPSDEQLKSGTASVVCLLNNFYPREAKVQWKVDNALQSGNSQESVTEQDSKDSTYSLSSTLTLSKADYEKHKVYACEVTHQGLSSPVTKSFNRGEC heavy 2: EVQLVESGGGLVQPGGSLRLSCAASGFTFSDYYMTWVRQAPGKGLEWVAFIRNQARGYTSDHNPSVKGRFTISRDNAKNSLYLQMNSLRAEDTAVYYCARDRPSYYVLDYWGQGTTVTVSSASTKGPSVFPLAPCSRSTSESTAALGCLVKDYFPEPVTVSWNSGALTSGVHTFPAVLQSSGLYSLSSVVTVPSSNFGTQTYTCNVDHKPSNTKVDKTVERKCRVRCPRCPAPPVAGPSVFLFPPKPKDTLMISRTPEVTCVVVAVSHEDPEVQFNWYVDGVEVHNAKTKPREEQFNSTFRVVSVLTVVHQDWLNGKEYKCKVSNKGLPSSIEKTISKTKGQPREPQVYTLPPSREEMTKNQVSLTCLVKGFYPSDIAVEWESNGQPENNYKTTPPMLDSDGSFFLYSRLTVDKSRWQQGNVFSCSVMHEALHNHYTQKSLSLSPGK light 2: DIQMTQSPSSLSASVGDRVTITCTSSQSLFNVRSQKNYLAWYQQKPGKAPKLLIYWASTRESGVPSRFSGSGSGTDFTLTISSLQPEDFATYYCKQSYDLFTFGGGTKVEIKRTVAAPSVFIFPPSDEQLKSGTASVVCLLNNFYPREAKVQWKVDNALQSGNSQESVTEQDSKDSTYSLSSTLTLSKADYEKHKVYACEVTHQGLSSPVTKSFNRGEC | 1560 nM | 7330 | 17.6 nM | 6.9 nM | 540
